Results taken from publication PMC2858980.

Key:
[1] = target: IL-8(1–66) monomer; experiment: NMR titration
[2] = target: IL-8(1–72) R26C trapped dimer; experiment: NMR titration

With LWTWFEDEFANATGMPPVEKDYSP [CXCR1 N-domain 24-mer] as the binder, how does the Kd [1] read?
Its Kd is 10 µM.

And the Kd [2]?
The Kd was 340 µM.
